Results on 125 sequences are retold here after the supplement of paper PMC9112550, “Optimization of the antimicrobial peptide Bac7 by deep mutational scanning” (BMC Biology, 2022).

This data set has as its system Escherichia coli TOP10. Nature of the data set: shrunken log2 fold change of peptide-encoding DNA abundance (4.5 h post-induction vs induction); higher = less antimicrobial activity (less host growth inhibition). The note with it: time post-induction: 4.5 h; library: site-saturation at positions 5, 18, 19, 20.
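Note: peptides expressed intracellularly from a pBAD plasmid library in pooled LB shake-flask culture, induced with 0.3% L-arabinose, DNA abundance read by NGS, three biological replicates, DESeq2 with apeglm shrinkage.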

In the case of RRIRARPPRLPRPRPRPGAKPRP, the “shrunken log2 fold change” value came out at 0.623.
Next, RRIRFRPPRLPRPRPRPPDRPRP: 0.128; RRIRDRPPRLPRPRPRPGCDPRP: 0.79.
Next, RRIRERPPRLPRPRPRPPPDPRP: 0.505; RRIRPRPPRLPRPRPRPWFTPRP: -0.0465; RRIRWRPPRLPRPRPRPGFIPRP: 0.0297.
Next, RRIRHRPPRLPRPRPRPLIWPRP: -0.538; RRIRMRPPRLPRPRPRPDMYPRP: -0.138.
As for RRIRVRPPRLPRPRPRPFASPRP, the “shrunken log2 fold change” value turned out to be 0.0656.
In the case of RRIRLRPPRLPRPRPRPKRNPRP it was 0.225; in that of RRIRCRPPRLPRPRPRPTMDPRP, -0.237.
Next, RRIRWRPPRLPRPRPRPVKFPRP: 0.0171.
In the case of RRIRYRPPRLPRPRPRPHQIPRP it was -0.201.
Regarding RRIRLRPPRLPRPRPRPSERPRP, the “shrunken log2 fold change” value is -0.0849.
Next, RRIRDRPPRLPRPRPRPRTHPRP: -0.188; RRIRERPPRLPRPRPRPADNPRP: -0.03; RRIRYRPPRLPRPRPRPMMLPRP: -0.00141.
For RRIRPRPPRLPRPRPRPLSGPRP, the “shrunken log2 fold change” value came out at 0.0234.
With RRIRHRPPRLPRPRPRPGGMPRP, the “shrunken log2 fold change” value turned out to be 0.274.
Next, RRIRSRPPRLPRPRPRPNNEPRP: -0.631; RRIRDRPPRLPRPRPRPEPYPRP: 0.118; RRIRIRPPRLPRPRPRPYAHPRP: -0.184.
Next, RRIRARPPRLPRPRPRPPERPRP: 0.703; RRIRTRPPRLPRPRPRPCPMPRP: 0.00574; RRIRCRPPRLPRPRPRPNKGPRP: -0.302.
Next, RRIRVRPPRLPRPRPRPQIWPRP: -0.192; RRIRRRPPRLPRPRPRPRCRPRP: 1.57; RRIRVRPPRLPRPRPRPWPLPRP: -0.183.
For the sequence RRIRERPPRLPRPRPRPDFMPRP, the “shrunken log2 fold change” value came out at 0.0144.
In the case of RRIRGRPPRLPRPRPRPRSAPRP, the “shrunken log2 fold change” value turned out to be 1.31.
In the case of RRIRYRPPRLPRPRPRPCPTPRP it was -0.0225.
As for RRIRLRPPRLPRPRPRPPVIPRP, the “shrunken log2 fold change” value is -0.0477.
With RRIRLRPPRLPRPRPRPQWFPRP, the “shrunken log2 fold change” value was -0.0962.
Next, RRIRYRPPRLPRPRPRPQLFPRP: -0.745.
For the sequence RRIRYRPPRLPRPRPRPFLPPRP, the “shrunken log2 fold change” value was -0.557.
As to RRIRFRPPRLPRPRPRPKGKPRP, the “shrunken log2 fold change” value was 0.195.
In the case of RRIRFRPPRLPRPRPRPDTLPRP it was -0.0946.
On to RRIRLRPPRLPRPRPRPPLGPRP, for which the “shrunken log2 fold change” value came to 0.409.
Next, RRIRDRPPRLPRPRPRPLPIPRP: 0.162.
Next, RRIRKRPPRLPRPRPRPYTGPRP: -0.318; RRIRYRPPRLPRPRPRPIAAPRP: -0.158; RRIRFRPPRLPRPRPRPHMKPRP: -0.585.
Regarding RRIRVRPPRLPRPRPRPCHCPRP, the “shrunken log2 fold change” value is -0.373.
For the sequence RRIRLRPPRLPRPRPRPFVAPRP, the “shrunken log2 fold change” value was -0.0302.
In the case of RRIRMRPPRLPRPRPRPKEMPRP, the “shrunken log2 fold change” value was found to be 0.31.
In the case of RRIRDRPPRLPRPRPRPPHIPRP it was -0.213.
Next, RRIRDRPPRLPRPRPRPSSMPRP: -0.292.
In the case of RRIRPRPPRLPRPRPRPSPSPRP it was 0.132; in that of RRIRPRPPRLPRPRPRPSKKPRP, -0.108.
As to RRIRGRPPRLPRPRPRPFGKPRP, the “shrunken log2 fold change” value is -0.144.
RRIRTRPPRLPRPRPRPNAEPRP: the “shrunken log2 fold change” value came to 0.25.
In the case of RRIRYRPPRLPRPRPRPILKPRP it was -1.06; in that of RRIRGRPPRLPRPRPRPSGPPRP, -0.0342; in that of RRIRDRPPRLPRPRPRPVRVPRP, 0.908.
With RRIRWRPPRLPRPRPRPQCSPRP, the “shrunken log2 fold change” value is 0.221.
For the sequence RRIRHRPPRLPRPRPRPVYGPRP, the “shrunken log2 fold change” value was -0.528.
In the case of RRIRIRPPRLPRPRPRPKFHPRP it was -0.375; in that of RRIRNRPPRLPRPRPRPYERPRP, 0.0318; in that of RRIRNRPPRLPRPRPRPWWWPRP, 0.373.
In the case of RRIRMRPPRLPRPRPRPLWHPRP it was 0.336.
In the case of RRIRKRPPRLPRPRPRPLEVPRP, the “shrunken log2 fold change” value was found to be 0.0569.
As for RRIRLRPPRLPRPRPRPWCGPRP, the “shrunken log2 fold change” value was -0.0859.
In the case of RRIRKRPPRLPRPRPRPVWQPRP it was 0.184; in that of RRIRARPPRLPRPRPRPCDSPRP, 0.0469.
In the case of RRIRFRPPRLPRPRPRPVDMPRP, the “shrunken log2 fold change” value worked out at 0.00603.
Take RRIRARPPRLPRPRPRPHPGPRP: the “shrunken log2 fold change” value was 0.219.
Next, RRIRLRPPRLPRPRPRPWMCPRP: -0.492.
In the case of RRIRYRPPRLPRPRPRPKPMPRP it was 0.0517; in that of RRIRCRPPRLPRPRPRPNCVPRP, -0.00701.
With RRIRFRPPRLPRPRPRPIWAPRP, the “shrunken log2 fold change” value was 0.0219.
Regarding RRIRHRPPRLPRPRPRPFGCPRP, the “shrunken log2 fold change” value came to 0.0728.
Regarding RRIRERPPRLPRPRPRPTRTPRP, the “shrunken log2 fold change” value was 0.374.
Regarding RRIRMRPPRLPRPRPRPGCQPRP, the “shrunken log2 fold change” value stood at 0.719.
Consider RRIRTRPPRLPRPRPRPQSSPRP, for which the “shrunken log2 fold change” value was -0.08.
Next, RRIRGRPPRLPRPRPRPWVWPRP: 0.368.
In the case of RRIRFRPPRLPRPRPRPSTDPRP it was -0.667; in that of RRIRPRPPRLPRPRPRPGGSPRP, 0.166; in that of RRIRGRPPRLPRPRPRPHYKPRP, -0.0643.
As to RRIRLRPPRLPRPRPRPQGPPRP, the “shrunken log2 fold change” value is -0.191.
As to RRIRCRPPRLPRPRPRPNQAPRP, the “shrunken log2 fold change” value was -0.146.
Consider RRIRWRPPRLPRPRPRPKYCPRP, for which the “shrunken log2 fold change” value is -0.245.
Take RRIRDRPPRLPRPRPRPNEPPRP: the “shrunken log2 fold change” value was -0.0233.
As for RRIRYRPPRLPRPRPRPSNKPRP, the “shrunken log2 fold change” value is -0.953.
Turning to RRIRRRPPRLPRPRPRPHFTPRP, the “shrunken log2 fold change” value was -0.0671.
In the case of RRIRIRPPRLPRPRPRPVNKPRP, the “shrunken log2 fold change” value was -0.426.
Next, RRIRERPPRLPRPRPRPSNCPRP: -0.0637.
Next, RRIRMRPPRLPRPRPRPRNTPRP: 0.354; RRIRARPPRLPRPRPRPWYAPRP: -0.307.
Next, RRIRYRPPRLPRPRPRPYCPPRP: -0.848.
Consider RRIRKRPPRLPRPRPRPEHIPRP, for which the “shrunken log2 fold change” value was 0.0147.
In the case of RRIRCRPPRLPRPRPRPTCDPRP it was 0.187.
In the case of RRIRPRPPRLPRPRPRPQMNPRP it was -0.267.
For RRIRTRPPRLPRPRPRPKCVPRP, the “shrunken log2 fold change” value was -0.138.
Next, RRIRARPPRLPRPRPRPCAHPRP: -0.0288; RRIRFRPPRLPRPRPRPKFLPRP: -0.283; RRIRERPPRLPRPRPRPDSNPRP: -0.00994.
Consider RRIRPRPPRLPRPRPRPIIWPRP, for which the “shrunken log2 fold change” value is -0.0266.
RRIRLRPPRLPRPRPRPCMYPRP: the “shrunken log2 fold change” value is -0.674.
In the case of RRIRCRPPRLPRPRPRPLVEPRP it was 0.102; in that of RRIRERPPRLPRPRPRPVGAPRP, 0.392.
With RRIRERPPRLPRPRPRPLRCPRP, the “shrunken log2 fold change” value came to 0.187.
In the case of RRIRRRPPRLPRPRPRPKSPPRP it was 0.189; in that of RRIRYRPPRLPRPRPRPVGEPRP, 0.207; in that of RRIRARPPRLPRPRPRPEFGPRP, 0.874.
Regarding RRIRYRPPRLPRPRPRPAESPRP, the “shrunken log2 fold change” value was -0.00136.
For RRIRMRPPRLPRPRPRPYHMPRP, the “shrunken log2 fold change” value is -0.000687.
Regarding RRIRNRPPRLPRPRPRPQGTPRP, the “shrunken log2 fold change” value is -0.0148.
With RRIRYRPPRLPRPRPRPRPVPRP, the “shrunken log2 fold change” value came out at 0.0983.
Next, RRIRCRPPRLPRPRPRPWWFPRP: 0.0459; RRIRMRPPRLPRPRPRPVCYPRP: -0.21.
Next, RRIRTRPPRLPRPRPRPQGFPRP: 0.0424; RRIRSRPPRLPRPRPRPMDNPRP: -0.0175.
For the sequence RRIRRRPPRLPRPRPRPVEGPRP, the “shrunken log2 fold change” value is 0.268.
Take RRIRYRPPRLPRPRPRPGGPPRP: the “shrunken log2 fold change” value worked out at 0.106.
Consider RRIRQRPPRLPRPRPRPCGYPRP, for which the “shrunken log2 fold change” value is -0.0698.
Next, RRIRIRPPRLPRPRPRPSDDPRP: -0.191.
With RRIRERPPRLPRPRPRPLMHPRP, the “shrunken log2 fold change” value is -0.231.
For RRIRLRPPRLPRPRPRPTLTPRP, the “shrunken log2 fold change” value is 0.26.
Take RRIRYRPPRLPRPRPRPKMYPRP: the “shrunken log2 fold change” value is -1.46.
As for RRIRNRPPRLPRPRPRPDVCPRP, the “shrunken log2 fold change” value was -0.00695.
In the case of RRIRRRPPRLPRPRPRPDAGPRP, the “shrunken log2 fold change” value was 0.307.
In the case of RRIRPRPPRLPRPRPRPAALPRP it was 0.248; in that of RRIRARPPRLPRPRPRPGGGPRP, 0.898.
Next, RRIRLRPPRLPRPRPRPFYTPRP: -0.338; RRIRLRPPRLPRPRPRPENGPRP: -0.108.
